Experimental data from patent US20260297165 (published 2026).
Where a chain is given by its changes, count along the chain named. In names and notes the source's numbering stands.

B1: Vector KRE sCD59-6xHis wild-type (protein)
chain: MGIQGGSVLFGLLLVLAVFCHSGHSLQCYNCPNPTADCKTAVNCSSDFDACLITKAGLQVYNKCWKFEHCNFNDVTTRLRENELTYYCCKKDLCNFNEQLENHHHHHH
B2: Vector MTA sCD59 S20G-6xHis (protein)
chain: B1 chain with S45G
B3: Vector MTC sCD59 T51G-6xHis (protein)
chain: B1 chain with T76G
B4: Vector KRM vsCD59 K38R-6xHis (protein)
chain: B1 chain with K63R
B5: Vector MTE sCD59 S20G,T51G-6xHis (protein)
chain: B1 chain with S45G, T76G
B6: Vector KRG vsCD59 N18Q-6xHis (protein)
chain: B1 chain with N43Q
B7: sCD59 (His)10 wild-type, commercial (protein)
chain: LQCYNCPNPTADCKTAVNCSSDFDACLITKAGLQVYNKCWKFEHCNFNDVTTRLRENELTYYCCKKDLCNFNEQLEN
B8: sCD59 wild-type, in-house purified (protein)
chain: MGIQGGSVLFGLLLVLAVFCHSGHSLQCYNCPNPTADCKTAVNCSSDFDACLITKAGLQVYNKCWKFEHCNFNDVTTRLRENELTYYCCKKDLCNFNEQLEN

What follows are binders tested against C9 (human, UniProt P02748) (assay: other (MSD ECL)).
Chain of C9 (P02748 22-559): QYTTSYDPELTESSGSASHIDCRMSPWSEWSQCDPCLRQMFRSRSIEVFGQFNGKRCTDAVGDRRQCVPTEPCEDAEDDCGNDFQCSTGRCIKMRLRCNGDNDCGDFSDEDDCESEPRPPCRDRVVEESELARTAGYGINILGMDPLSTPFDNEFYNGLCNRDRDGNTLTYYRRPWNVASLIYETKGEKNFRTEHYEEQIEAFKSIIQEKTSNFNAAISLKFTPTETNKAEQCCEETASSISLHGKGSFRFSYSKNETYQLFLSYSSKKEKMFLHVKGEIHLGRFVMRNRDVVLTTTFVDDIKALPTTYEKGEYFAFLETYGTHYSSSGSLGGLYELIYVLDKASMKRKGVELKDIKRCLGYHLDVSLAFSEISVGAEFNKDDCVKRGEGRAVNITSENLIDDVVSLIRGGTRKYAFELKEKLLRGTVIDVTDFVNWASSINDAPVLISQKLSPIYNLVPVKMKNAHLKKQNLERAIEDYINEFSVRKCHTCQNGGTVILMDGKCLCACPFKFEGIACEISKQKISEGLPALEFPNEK

B1 and B2 are within 1.5-fold of each other in Kd: 34.3 nM for the first, 46.1 nM for the second.

Going from B3 to B4, the Kd rises from 23.7 nM to 39 nM (1.6-fold).

First: B5
Second: B6
The Kd of the first is 1.8-fold higher: 28.9 nM for the first, 16 nM for the second. The second binds more tightly here.

B7 and B8 are within 1.5-fold of each other in Kd: 33.1 nM for the first, 38.6 nM for the second.
